Measurements taken from patent US20150064134A1.

Target: MAPKAP-K2(h) (human) (UniProt P49137)
Experiment: cell-based or functional assay

MMI-0100 (peptide)
IC50 (radiometric kinase activity assay): 22 µM
